This is an account of results in patent US20200054764A1, “MEDICAL USE OF ANTI-C MET ANTIBODY-CYTOTOXIC DRUG CONJUGATE” (priority 2016, published 2020).

Assay [1] concerns a variety of human tumor cell lines. The conditions noted are these: background statement; cited from earlier work.
Assay [2] concerns the target human c-Met on MKN45 cells (human) (UniProt P08581). As to the kind of experiment: cell-based or functional assay.
The target in assay [3] is T1, human c-Met ECD his tag (Human c-Met ECD-His) recombinant protein (human, UniProt P08581 25-932).
T1 construct: extracellular domain; It was expressed in 293F cells; Natural c-Met is cleaved into alpha and beta subunits; also called human c-Met-His; not shown: C-terminal His tag
T1 sequence (P08581 25-932): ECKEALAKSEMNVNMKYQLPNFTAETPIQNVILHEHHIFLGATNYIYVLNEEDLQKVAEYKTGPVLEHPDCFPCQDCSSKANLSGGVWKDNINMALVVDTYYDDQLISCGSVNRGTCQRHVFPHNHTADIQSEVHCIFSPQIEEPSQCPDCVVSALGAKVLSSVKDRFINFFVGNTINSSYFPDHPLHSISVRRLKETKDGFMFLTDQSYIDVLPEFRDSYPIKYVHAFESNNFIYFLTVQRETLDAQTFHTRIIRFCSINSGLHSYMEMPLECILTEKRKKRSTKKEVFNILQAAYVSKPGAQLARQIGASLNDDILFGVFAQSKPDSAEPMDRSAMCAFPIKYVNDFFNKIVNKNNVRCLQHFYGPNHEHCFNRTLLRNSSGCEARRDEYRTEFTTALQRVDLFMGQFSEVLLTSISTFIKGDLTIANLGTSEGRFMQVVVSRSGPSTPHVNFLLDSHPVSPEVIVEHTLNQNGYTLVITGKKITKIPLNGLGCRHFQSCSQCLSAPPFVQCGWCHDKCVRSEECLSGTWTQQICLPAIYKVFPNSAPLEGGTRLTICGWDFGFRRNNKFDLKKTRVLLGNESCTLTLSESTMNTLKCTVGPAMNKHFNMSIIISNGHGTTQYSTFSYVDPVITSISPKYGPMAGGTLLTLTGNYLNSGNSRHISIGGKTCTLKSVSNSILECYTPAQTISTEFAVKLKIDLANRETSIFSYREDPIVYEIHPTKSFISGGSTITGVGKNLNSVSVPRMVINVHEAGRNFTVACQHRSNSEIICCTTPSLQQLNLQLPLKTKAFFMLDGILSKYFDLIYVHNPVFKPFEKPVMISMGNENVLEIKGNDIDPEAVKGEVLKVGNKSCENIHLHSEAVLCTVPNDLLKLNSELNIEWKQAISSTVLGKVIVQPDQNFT
The assay can be described thus: ELISA, plate coated with human c-Met-His at 2 ug/mL. In general terms: ELISA stands for enzyme-linked immunosorbent assay.

Assay [4] deals with T2, human c-Met-His (Homo sapiens, UniProt P08581).
T2 construct: His tag (6xHis) (C); made in house; host or cells: 293F cells (Invitrogen, Cat # R790-07); vector pEE6.4; c-Met gene template origene RC217003
T2 sequence (P08581 with tags, fused parts or gaps limits assumed): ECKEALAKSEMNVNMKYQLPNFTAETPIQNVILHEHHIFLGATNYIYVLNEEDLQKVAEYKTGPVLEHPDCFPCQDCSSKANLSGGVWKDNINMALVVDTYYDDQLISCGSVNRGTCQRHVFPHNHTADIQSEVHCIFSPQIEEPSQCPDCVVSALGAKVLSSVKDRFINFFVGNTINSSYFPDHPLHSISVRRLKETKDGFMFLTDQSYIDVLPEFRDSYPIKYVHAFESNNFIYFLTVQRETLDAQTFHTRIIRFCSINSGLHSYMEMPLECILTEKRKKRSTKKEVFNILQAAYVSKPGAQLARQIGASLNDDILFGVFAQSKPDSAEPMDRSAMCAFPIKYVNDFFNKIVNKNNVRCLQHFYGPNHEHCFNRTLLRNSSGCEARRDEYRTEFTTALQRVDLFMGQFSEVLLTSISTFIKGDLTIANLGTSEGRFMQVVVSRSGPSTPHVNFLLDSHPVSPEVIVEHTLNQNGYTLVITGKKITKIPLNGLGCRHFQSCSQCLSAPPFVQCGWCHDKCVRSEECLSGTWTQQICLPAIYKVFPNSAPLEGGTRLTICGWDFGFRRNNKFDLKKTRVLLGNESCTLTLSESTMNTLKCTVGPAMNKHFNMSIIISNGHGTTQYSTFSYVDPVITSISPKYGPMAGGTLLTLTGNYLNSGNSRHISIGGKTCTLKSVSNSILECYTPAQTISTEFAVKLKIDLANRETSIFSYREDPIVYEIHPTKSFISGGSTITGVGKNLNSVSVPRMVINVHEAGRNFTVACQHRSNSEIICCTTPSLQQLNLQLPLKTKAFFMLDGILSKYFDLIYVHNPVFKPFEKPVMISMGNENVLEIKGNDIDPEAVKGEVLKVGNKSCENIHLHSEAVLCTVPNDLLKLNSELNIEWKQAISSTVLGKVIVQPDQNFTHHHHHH
As to the kind of experiment: ELISA binding of c-Met antibody to c-Met antigen. The conditions noted are these: hybridoma clones, ELISA, OD450. On the procedure:
This experiment uses enzyme linked immunosorbent assay to detect affinity of c-Met antibody (including supermatant of hybridonma or recombinant expressed monoclonal antibodies) to c-Met antigen in vitro.
Experimental procedures: Coating buffer (PBS; Hyclone, Cat No.: SH30256.01B) was used to dilute antigen (human c-Met-His, example 1) to 2 μg/mL, which was added to a 96-well microplate at 100 μL/well (Costar 9018, Cat No.:03113024) and incubated overnight at 4° C. […] The plate was read with plate reader at 450 nm.
Murine anti-human c-Met monoclonal cell lines were obtained by immunizing mice, fusion of spleen cells, and screening of hybridomas. […] After the first booster immunization, mice serum was collected during 7 to 10 days after each booster immunization, and the titer was detected by ELISA (Methods were described in Example 2).
After immunization, mice with a serum titer higher than 1:10^5 were selected for cell fusion. Mouse B-cells and myeloma cells (SP2/0, ATCC number:CRL-1581™) were prepared respectively in aseptic conditions and counted. […] The next day, positive clones were detected by ELISA (see Methods in Example 2).

Sequence of human c-Met on MKN45 cells (human) (P08581 25-1390): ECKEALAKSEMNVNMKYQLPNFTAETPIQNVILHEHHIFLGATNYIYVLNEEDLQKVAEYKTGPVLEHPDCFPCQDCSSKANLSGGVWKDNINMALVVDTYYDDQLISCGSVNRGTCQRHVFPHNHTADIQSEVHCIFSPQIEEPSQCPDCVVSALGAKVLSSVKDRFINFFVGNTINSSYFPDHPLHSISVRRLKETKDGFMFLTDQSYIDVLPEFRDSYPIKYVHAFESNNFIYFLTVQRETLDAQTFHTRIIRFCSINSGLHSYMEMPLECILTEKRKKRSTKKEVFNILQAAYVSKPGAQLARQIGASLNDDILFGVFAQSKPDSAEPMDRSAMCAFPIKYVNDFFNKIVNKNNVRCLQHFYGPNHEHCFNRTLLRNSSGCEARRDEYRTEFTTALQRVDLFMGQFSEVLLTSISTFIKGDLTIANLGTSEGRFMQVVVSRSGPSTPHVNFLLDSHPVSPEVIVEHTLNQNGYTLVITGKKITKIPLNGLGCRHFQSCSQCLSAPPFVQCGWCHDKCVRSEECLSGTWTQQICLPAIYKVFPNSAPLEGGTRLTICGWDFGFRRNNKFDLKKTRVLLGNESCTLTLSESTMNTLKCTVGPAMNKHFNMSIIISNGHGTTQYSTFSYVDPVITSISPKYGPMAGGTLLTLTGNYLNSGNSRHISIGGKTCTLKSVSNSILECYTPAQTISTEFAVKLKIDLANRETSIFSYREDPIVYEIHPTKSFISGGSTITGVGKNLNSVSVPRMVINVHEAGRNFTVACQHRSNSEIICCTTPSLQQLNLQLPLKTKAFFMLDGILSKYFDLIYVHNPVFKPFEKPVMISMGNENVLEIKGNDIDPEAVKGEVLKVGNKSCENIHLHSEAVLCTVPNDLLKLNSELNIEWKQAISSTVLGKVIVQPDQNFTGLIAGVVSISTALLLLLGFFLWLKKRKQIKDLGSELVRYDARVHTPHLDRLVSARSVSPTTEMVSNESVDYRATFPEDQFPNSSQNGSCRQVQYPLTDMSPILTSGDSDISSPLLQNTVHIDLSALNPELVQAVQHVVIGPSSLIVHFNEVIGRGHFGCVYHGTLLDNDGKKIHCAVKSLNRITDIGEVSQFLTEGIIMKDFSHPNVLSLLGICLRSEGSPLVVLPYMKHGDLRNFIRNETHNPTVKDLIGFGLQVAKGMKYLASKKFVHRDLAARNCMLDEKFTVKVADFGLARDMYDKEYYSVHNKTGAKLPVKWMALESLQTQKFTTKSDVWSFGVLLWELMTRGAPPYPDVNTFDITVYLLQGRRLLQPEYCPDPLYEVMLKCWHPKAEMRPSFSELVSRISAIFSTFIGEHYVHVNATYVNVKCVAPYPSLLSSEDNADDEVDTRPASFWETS

For the molecule `CC[C@H](C)C([C@@H](CC(=O)N1CCC[C@H]1[C@H](OC)[C@@H](C)C(=O)N[C@H](C)[C@@H](O)c1ccccc1)OC)N(C)C(=O)[C@@H](NC(=O)[C@@H](NC)C(C)C)C(C)C` (some centres unmarked) [MMAE, Monomethyl auristatin E], the “inhibitory activities against a variety of human tumor cell lines” value in assay [1] is “less than one nanomolar”.
In the case of hIgG (control) (antibody), in assay [2], the endocytosis % (0 h) turned out to be 0%, the endocytosis % (0.5 h) is -0.9%, the endocytosis % (1 h) is -4.4% and the endocytosis % (2 h) was -4.9%. The molecule further registered an endocytosis % (4 h) in assay [2] of 3.6%.

B1: Ab-11 humanized antibody (antibody, human IgG2, kappa, V domains shown)
VH: QVQLVESGGGVVQPGRSLRLSCAASGFTLPNYGVHWVRQAPGKGLEWLAVIWSGGSTNYAAAFVSRLTISKDNSKNTVYLQMNSLRAEDTAVYYCARNHDNPYNYAMDYWGQGTTVTVSS
VL: DIVLTQSPDSLAVSLGERATINCRANKSVSTSTYNYLHWYQQKPGQPPKLLIYLASNLASGVPDRFSGSGSGTDFTLTISSLQAEDVAVYYCQHSRDLPPTFGQGTKLEIKR
notes: Full-length humanized antibody
For B1, the EC50 (commonly the concentration needed to bring the measured effect to its halfway point) in assay [3] is 0.2 nM.

B2: Ab-5 (antibody, V domains shown)
VH: QVQLKQSGPGLVQPSQSLSITCTVSGFSLPNYGVHWVRQSPGKGLEWLGVIWSGGSTNYAAAFVSRLRISKDNSKSQVFFEMNSLQADDTAVYYCARNHDNPYNYAMDYWGQGTTVTVSS
VL: DIVLTQSPGSLAVYLGQRATISCRANKSVSTSTYNYLHWYQQKPGQPPKLLIYLASNLASGVPARFSGSGSGTDFTLNIHPLEEEDAATYYCQHSRDLPPTFGAGTKLELKR
Take B2: the “Detection Results (OD450)” value in assay [4] was determined as 1.64.
